Reference: patent US20050271676A1, “Inducing cellular immune responses to human immunodeficiency virus-1 using peptide and nucleic acid compositions” (Epimmune Inc., priority 1993, published 2005)

Experiments:
HLA-A*1101 = HLA-A*1101 (Homo sapiens, UniProt P04439, A114D/D185E/E176A/F33Y/L180Q/S129P/T187R); assay: purified HLA class I binding assay, A*1101; settings: for A*1101 (HIV A11 Motif Peptides with Binding Information): binding value to purified HLA-A*1101 in Table XVII; for A*1101 binding: HIV A11 motif peptides (GAG)
HLA-B*0702 = target: T1, HLA-B*0702 (Homo sapiens, UniProt P01889); assay: purified HLA class I binding assay, B*0702; settings: for B*0702 binding (HIV B07 Super Motif Peptides with Binding Information): purified HLA-B*0702, binding value without unit; for B*0702 (binding information): HIV B07 supermotif peptides, binding value for purified HLA-B*0702, unit not given
T1 construct: endogenous in cells; host or cells: GM3107

HLA-A*0301 = target: T2, HLA-A*0301 (Homo sapiens, UniProt P04439); assay: purified HLA class I binding assay, A*0301; settings: for A*0301 binding information: HIV A03 supermotif peptides; for A0301 (binding information): HIV A03 motif peptides; for A0301 (binding information) / A0301 (binding information, HIV A03 motif peptides): Table XVI
T2 construct: endogenous in cells; host or cells: GM3107

HLA-A*0201 = HLA-A*0201 (Homo sapiens, UniProt P04439, D140Y/D185E/D98H/E176V/E277Q/G131W/G231S/I119V/I121R/I166T/I218V/L300P/L318F/N151K/N90K/P208A/P217A/Q86G/Q94H/R138H/R169H/T345S); assay: purified HLA class I binding assay, A*0201; settings: Table VIII, unit not given
[1] = binding value to purified HLA-A*0301, unit not given
[2] = HIV A02 Super Motif Peptides with Binding Information
[3] = HIV POL-derived peptides, unit not given
[4] = Table XVII, HIV A11 motif peptides, binding value A*1101, unit not given
[5] = HIV POL-derived A03 motif peptides, binding value for purified HLA-A*0301, unit not given

AANREIKLGK
A*1101 (HIV A11 Motif Peptides with Binding Information) (HLA-A*1101; unit not given): 0.0016

ANRIETKLGK
A*1101 (HIV A11 Motif Peptides with Binding Information) (HLA-A*1101; unit not given): 0.0001

APTKAKRRVV
B*0702 binding (HIV B07 Super Motif Peptides with Binding Information) (HLA-B*0702): 0.1200

ATLYCVIIQR
A*0301 binding information (HLA-A*0301; Table IX, unit not given): 0.0150
A0301 (HIV A03 Motif Peptides with Binding Information) (HLA-A*0301; [1]): 0.0150
A*1101 (binding information) (HLA-A*1101; HIV A03 supermotif peptides, Table IX, unit not given): 0.7100
A*1101 binding (HLA-A*1101; Table XVII, unit not given): 0.7100

ATWIPCWEFV
A*0201 (binding information) (HLA-A*0201; HIV A02 supermotif peptides): 0.0013

AVDLSIIFLK
A0301 (binding information) (HLA-A*0301; [1]): 0.0740
A*1101 (binding information) (HLA-A*1101; HIV A11 motif peptides, Table XVII, unit not given): 1.1000

CVKLTPLCV
A*0201 (binding information) (HLA-A*0201; [2]): 0.0002

CVKLTPLCVT
A*0201 (binding information) (HLA-A*0201; HIV A02 super motif peptides): 0.0001

DPEIVMIISF
B*0702 binding (HIV B07 Super Motif Peptides with Binding Information) (HLA-B*0702): 0.0001

DTEVIINVWA
A*0201 (binding information) (HLA-A*0201; [2]): 0.0001

DTEYIINVWAT
A*0201 (binding information) (HLA-A*0201; HIV A02 super motif peptides): 0.0001

DVKQLTEAVQ
A0301 (binding information, HIV A03 motif peptides) (HLA-A*0301; [3]): 0.0048
A*1101 (HIV A11 Motif Peptides with Binding Information) (HLA-A*1101; unit not given): 0.0240

EILKEPVIIGV
A*0201 (binding information) (HLA-A*0201; HIV A02 supermotif peptides): 0.0007

ELQAIIILAL
A*0201 (binding information) (HLA-A*0201; HIV A02 super motif peptides): 0.0001

EPFKNLKTGK
B*0702 (binding information) (HLA-B*0702): 0.0001

EPFRDYVDRP
B*0702 binding (HIV B07 Super Motif Peptides with Binding Information) (HLA-B*0702): 0.00012

EPFREYVIIRF
B*0702 binding (HIV B07 Super Motif Peptides with Binding Information) (HLA-B*0702): 0.0001

EPIPIIIYCA
B*0702 binding (HIV B07 Super Motif Peptides with Binding Information) (HLA-B*0702): 0.0001

EPIVGAEIP
B*0702 (binding information) (HLA-B*0702): 0.0001

EPPFLWMGYE
B*0702 (binding information) (HLA-B*0702): 0.0001

EPVDPRLEPW
B*0702 (binding information) (HLA-B*0702): 0.0001

EPVIIGVYY
B*0702 binding (HIV B07 Super Motif Peptides with Binding Information) (HLA-B*0702): 0.0001

EVIINVWATIIA
A*0201 (binding information) (HLA-A*0201; HIV A02 super motif peptides): 0.0001

FLGKIWPSIIK
A0301 (binding information) (HLA-A*0301; binding value unit not given): 0.0200
A*1101 binding (HLA-A*1101; Table XVII, unit not given): 0.0013

FVNIPPLVK
A*1101 (binding information) (HLA-A*1101; [4]): 0.0660

GIIQAQVDK
A0301 (binding information, HIV A03 motif peptides) (HLA-A*0301; [3]): 0.0009

GIPIIPAGLK
A*1101 (binding information) (HLA-A*1101; [4]): 0.0650

GIPIIPAGLKK
A0301 (HIV A03 Motif Peptides with Binding Information) (HLA-A*0301; [5]): 0.0110
A*1101 (binding information) (HLA-A*1101; [4]): 0.1700

GPAATLEEMM
B*0702 binding (HIV B07 Super Motif Peptides with Binding Information) (HLA-B*0702): 0.0020

GPGIIKARV
B*0702 binding (HIV B07 Super Motif Peptides with Binding Information) (HLA-B*0702): 0.0002

GPGIIKARVLA
B*0702 binding (HIV B07 Super Motif Peptides with Binding Information) (HLA-B*0702): 0.0002

GPKVKQWPL
B*0702 (binding information) (HLA-B*0702): 0.0150

HPAGLKKKKS
B*0702 (binding information) (HLA-B*0702): 0.0001

HPVIIAGPI
B*0702 binding (HIV B07 Super Motif Peptides with Binding Information) (HLA-B*0702): 0.0012

IIGVYYDPSK
A*1101 (binding information) (HLA-A*1101; [4]): 0.0001

IIPDKWTVQPI
B*0702 (binding information) (HLA-B*0702): 0.0012

IIPGSQPKTA
B*0702 (binding information) (HLA-B*0702): 0.0007

IIPRISSEVHI
B*0702 (binding information) (HLA-B*0702): 0.0330

IIPVIIAGPIA
B*0702 binding (HIV B07 Super Motif Peptides with Binding Information) (HLA-B*0702): 0.0590

IIVASGYIEA
A0301 (HIV A03 Motif Peptides with Binding Information) (HLA-A*0301; [5]): 0.0003

ILQQLLFIIIF
A0301 (binding information, HIV A03 motif peptides) (HLA-A*0301; binding value for HLA-A*0301, unit not given): 0.0130

IPIIIYCAPA
B*0702 binding (HIV B07 Super Motif Peptides with Binding Information) (HLA-B*0702): 0.0130

IPMFSALSIEGA
B*0702 binding (HIV B07 Super Motif Peptides with Binding Information) (HLA-B*0702): 0.0004

IPVGEIYKRW
B*0702 binding (HIV B07 Super Motif Peptides with Binding Information) (HLA-B*0702): 0.0002

ISPILTVPVK
A*1101 (binding information) (HLA-A*1101; [4]): 0.0310

IVASCDKCQLK
A*0301 binding information (HLA-A*0301; binding value, no unit given): 0.0970
A0301 (HIV A03 Motif Peptides with Binding Information) (HLA-A*0301; [5]): 0.0970
A*1101 (binding information) (HLA-A*1101; HIV A03 supermotif peptides, binding value, no unit given): 0.1000
A*1101 (binding information) (HLA-A*1101; [4]): 0.1000
